Experimental data as given in the supplement of paper PMC10567573.

B1: WSB1 (parent)
chain: DLKDDGNMMKVLRGHQNWVYSCAF

Variants of: B1
Assay: protein stability index of a GFP-peptide fusion (GPS, HEK-293T) (PSI 1-6); higher = more stable
Settings: c terminus: a fixed tail appended
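Note: lentivirally expressed fusions sorted by FACS into six bins by GFP to DsRed ratio, PSI derived from sequencing read proportions per bin multiplied by bin number.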

| Variant | protein stability index |
| --- | --- |
| DLKDDGNMQKVLRGHQNWVYSCAF [M9Q] | 1.73 |
| DLKDDGNMRKVLRGHQNWVYSCAF [M9R] | 1.54 |
| DLKDDGNMSKVLRGHQNWVYSCAF [M9S] | 1.43 |
| DLKDDGNMTKVLRGHQNWVYSCAF [M9T] | 1.45 |
| DLKDDGNMVKVLRGHQNWVYSCAF [M9V] | 1.27 |
| DLKDDGNMYKVLRGHQNWVYSCAF [M9Y] | 1.06 |
| DLKDDGNMMAVLRGHQNWVYSCAF [K10A] | 2.38 |
| DLKDDGNMMCVLRGHQNWVYSCAF [K10C] | 2.19 |
| DLKDDGNMMDVLRGHQNWVYSCAF [K10D] | 1.72 |
| DLKDDGNMMEVLRGHQNWVYSCAF [K10E] | 1.49 |
| DLKDDGNMMFVLRGHQNWVYSCAF [K10F] | 4.7 |
| DLKDDGNMMHVLRGHQNWVYSCAF [K10H] | 1.96 |
| DLKDDGNMMIVLRGHQNWVYSCAF [K10I] | 2.34 |
| DLKDDGNMMLVLRGHQNWVYSCAF [K10L] | 2.53 |
| DLKDDGNMMMVLRGHQNWVYSCAF [K10M] | 1.55 |
| DLKDDGNMMNVLRGHQNWVYSCAF [K10N] | 1.31 |
| DLKDDGNMMPVLRGHQNWVYSCAF [K10P] | 2.27 |
| DLKDDGNMMQVLRGHQNWVYSCAF [K10Q] | 2.02 |
| DLKDDGNMMRVLRGHQNWVYSCAF [K10R] | 2.4 |
| DLKDDGNMMSVLRGHQNWVYSCAF [K10S] | 1.96 |
| DLKDDGNMMTVLRGHQNWVYSCAF [K10T] | 1.5 |
| DLKDDGNMMVVLRGHQNWVYSCAF [K10V] | 2.1 |
| DLKDDGNMMYVLRGHQNWVYSCAF [K10Y] | 2.78 |
| DLKDDGNMMKALRGHQNWVYSCAF [V11A] | 1.75 |

| Variant | protein stability index |
| --- | --- |
| DLKDDGNMMKDLRGHQNWVYSCAF [V11D] | 1.93 |
| DLKDDGNMMKELRGHQNWVYSCAF [V11E] | 2.01 |
| DLKDDGNMMKFLRGHQNWVYSCAF [V11F] | 2.64 |
| DLKDDGNMMKGLRGHQNWVYSCAF [V11G] | 1.65 |
| DLKDDGNMMKILRGHQNWVYSCAF [V11I] | 1.59 |
| DLKDDGNMMKKLRGHQNWVYSCAF [V11K] | 1.57 |
| DLKDDGNMMKLLRGHQNWVYSCAF [V11L] | 1.63 |
| DLKDDGNMMKMLRGHQNWVYSCAF [V11M] | 2 |
| DLKDDGNMMKNLRGHQNWVYSCAF [V11N] | 1.57 |
| DLKDDGNMMKPLRGHQNWVYSCAF [V11P] | 2.31 |
| DLKDDGNMMKQLRGHQNWVYSCAF [V11Q] | 2.62 |
| DLKDDGNMMKRLRGHQNWVYSCAF [V11R] | 1.69 |
| DLKDDGNMMKSLRGHQNWVYSCAF [V11S] | 2.79 |
| DLKDDGNMMKTLRGHQNWVYSCAF [V11T] | 2.41 |
| DLKDDGNMMKWLRGHQNWVYSCAF [V11W] | 2 |
| DLKDDGNMMKYLRGHQNWVYSCAF [V11Y] | 2.26 |
| DLKDDGNMMKVCRGHQNWVYSCAF [L12C] | 2.38 |
| DLKDDGNMMKVDRGHQNWVYSCAF [L12D] | 2.01 |
| DLKDDGNMMKVERGHQNWVYSCAF [L12E] | 2.27 |
| DLKDDGNMMKVFRGHQNWVYSCAF [L12F] | 1.67 |
| DLKDDGNMMKVGRGHQNWVYSCAF [L12G] | 1.91 |
| DLKDDGNMMKVHRGHQNWVYSCAF [L12H] | 1.44 |
| DLKDDGNMMKVIRGHQNWVYSCAF [L12I] | 1.49 |
| DLKDDGNMMKVKRGHQNWVYSCAF [L12K] | 1.85 |

| Variant | protein stability index |
| --- | --- |
| DLKDDGNMMKVMRGHQNWVYSCAF [L12M] | 1.24 |
| DLKDDGNMMKVNRGHQNWVYSCAF [L12N] | 1.5 |
| DLKDDGNMMKVPRGHQNWVYSCAF [L12P] | 2.2 |
| DLKDDGNMMKVQRGHQNWVYSCAF [L12Q] | 1.16 |
| DLKDDGNMMKVRRGHQNWVYSCAF [L12R] | 3.69 |
| DLKDDGNMMKVTRGHQNWVYSCAF [L12T] | 1.37 |
| DLKDDGNMMKVWRGHQNWVYSCAF [L12W] | 2.38 |
| DLKDDGNMMKVYRGHQNWVYSCAF [L12Y] | 2.74 |
| DLKDDGNMMKVLAGHQNWVYSCAF [R13A] | 1.73 |
| DLKDDGNMMKVLDGHQNWVYSCAF [R13D] | 1.32 |
| DLKDDGNMMKVLEGHQNWVYSCAF [R13E] | 2.88 |
| DLKDDGNMMKVLFGHQNWVYSCAF [R13F] | 1.92 |
| DLKDDGNMMKVLHGHQNWVYSCAF [R13H] | 1.46 |
| DLKDDGNMMKVLKGHQNWVYSCAF [R13K] | 1.58 |
| DLKDDGNMMKVLMGHQNWVYSCAF [R13M] | 2.28 |
| DLKDDGNMMKVLNGHQNWVYSCAF [R13N] | 2.74 |
| DLKDDGNMMKVLPGHQNWVYSCAF [R13P] | 2.02 |
| DLKDDGNMMKVLQGHQNWVYSCAF [R13Q] | 2.45 |
| DLKDDGNMMKVLSGHQNWVYSCAF [R13S] | 1.53 |
| DLKDDGNMMKVLTGHQNWVYSCAF [R13T] | 2.21 |
| DLKDDGNMMKVLWGHQNWVYSCAF [R13W] | 3.05 |
| DLKDDGNMMKVLYGHQNWVYSCAF [R13Y] | 2.46 |
| DLKDDGNMMKVLRAHQNWVYSCAF [G14A] | 1.33 |
| DLKDDGNMMKVLRCHQNWVYSCAF [G14C] | 2.43 |

| Variant | protein stability index |
| --- | --- |
| DLKDDGNMMKVLRDHQNWVYSCAF [G14D] | 1.91 |
| DLKDDGNMMKVLREHQNWVYSCAF [G14E] | 1.45 |
| DLKDDGNMMKVLRHHQNWVYSCAF [G14H] | 1.81 |
| DLKDDGNMMKVLRKHQNWVYSCAF [G14K] | 2.23 |
| DLKDDGNMMKVLRLHQNWVYSCAF [G14L] | 2.05 |
| DLKDDGNMMKVLRNHQNWVYSCAF [G14N] | 1.26 |
| DLKDDGNMMKVLRPHQNWVYSCAF [G14P] | 1.91 |
| DLKDDGNMMKVLRQHQNWVYSCAF [G14Q] | 2.31 |
| DLKDDGNMMKVLRRHQNWVYSCAF [G14R] | 1.29 |
| DLKDDGNMMKVLRSHQNWVYSCAF [G14S] | 2 |
| DLKDDGNMMKVLRTHQNWVYSCAF [G14T] | 2.39 |
| DLKDDGNMMKVLRWHQNWVYSCAF [G14W] | 1.87 |
| DLKDDGNMMKVLRYHQNWVYSCAF [G14Y] | 2.35 |
| DLKDDGNMMKVLRGAQNWVYSCAF [H15A] | 2.26 |
| DLKDDGNMMKVLRGDQNWVYSCAF [H15D] | 1.49 |
| DLKDDGNMMKVLRGEQNWVYSCAF [H15E] | 2.75 |
| DLKDDGNMMKVLRGFQNWVYSCAF [H15F] | 2.4 |
| DLKDDGNMMKVLRGGQNWVYSCAF [H15G] | 4.54 |
| DLKDDGNMMKVLRGIQNWVYSCAF [H15I] | 1.96 |
| DLKDDGNMMKVLRGKQNWVYSCAF [H15K] | 2.24 |
| DLKDDGNMMKVLRGLQNWVYSCAF [H15L] | 1.78 |
| DLKDDGNMMKVLRGMQNWVYSCAF [H15M] | 1.46 |
